Experimental data as given in US20260103488A1 (INTERK PEPTIDE THERAPEUTICS, published 2026).
Bridges are numbered along the chain shown (N, C = ends). Where no end group is shown, it is not given here. [ ]: non-standard residue; d: D form.

Target: Lck(h) (lymphocyte-specific protein tyrosine kinase) (human, UniProt P06239 1-509, limits assumed)
Test: cell-based or functional assay

Sequence of Lck(h) (lymphocyte-specific protein tyrosine kinase) (P06239 whole entry): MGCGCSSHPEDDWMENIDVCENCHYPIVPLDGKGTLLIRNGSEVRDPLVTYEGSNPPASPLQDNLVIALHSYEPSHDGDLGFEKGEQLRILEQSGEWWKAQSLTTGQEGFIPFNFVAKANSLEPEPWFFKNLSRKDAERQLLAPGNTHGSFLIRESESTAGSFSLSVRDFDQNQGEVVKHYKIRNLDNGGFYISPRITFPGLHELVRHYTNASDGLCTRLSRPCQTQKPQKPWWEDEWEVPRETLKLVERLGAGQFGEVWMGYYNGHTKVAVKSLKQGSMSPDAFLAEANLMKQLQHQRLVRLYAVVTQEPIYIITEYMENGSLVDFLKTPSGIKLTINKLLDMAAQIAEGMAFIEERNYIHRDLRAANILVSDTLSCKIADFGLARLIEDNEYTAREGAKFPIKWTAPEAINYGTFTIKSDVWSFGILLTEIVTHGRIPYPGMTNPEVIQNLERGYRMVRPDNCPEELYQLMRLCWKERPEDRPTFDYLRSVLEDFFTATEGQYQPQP

Row | Binder | Lck activity, percentage relative to control, in vitro kinase assay, peptide 1 µM | Lck activity relative to control (100%), in vitro kinase assay, peptide 1 µM
1 | RRRRRRRRRSKAKNPLYR-NH2 [RRRRRRRRR-SKAKNPLYR (IK9R94S)] | 542 % increase in Lck activity | –
2 | RSKAKNPLYRRRRRRRRRHHHHHHHHHH-NH2 [RSKAKNPLY-RRRRRRRRR-HHHHHHHHHH (IK14810)] | 899 % increase in Lck activity | –
3 | RRRRRRRRRYLPNKAKSR-NH2 [RRRRRRRRR-YLPNKAKSR (IK9R94Y)] | 630 % increase in Lck activity | –
4 | RSKAKNPLYRRRRRRRRR-NH2 [RSKAKNPLY-RRRRRRRRR-NH2 (IK14800)] | 496% | –
5 | RSKAKNPLYRRRRRR-NH2 [RSKAKNPLY-RRRRRR (IK14500)] | 82% | –
6 | RSKAK-NH2 [RSKAK (IK5000)] | 5 % activation of Lck relative to control | –
7 | RSKAKNPLYRHHHHHHHHHH-NH2 [RSKAKNPLY-RHHHHHHHHHH (IK14010)] | 30 % increase in Lck activity | –
8 | [dR][dR][dR][dR][dR][dR][dR][dR][dR][dY][dL][dP][dN][dK][dA][dK][dS][dR]-NH2 (N-terminus assumed; SMILES CC(C)C[C@@H](NC(=O)[C@@H](Cc1ccc(O)cc1)NC(=O)[C@@H](CCCNC(=N)N)NC(=O)[C@@H](CCCNC(=N)N)NC(=O)[C@@H](CCCNC(=N)N)NC(=O)[C@@H](CCCNC(=N)N)NC(=O)[C@@H](CCCNC(=N)N)NC(=O)[C@@H](CCCNC(=N)N)NC(=O)[C@@H](CCCNC(=N)N)NC(=O)[C@@H](CCCNC(=N)N)NC(=O)[C@H](N)CCCNC(=N)N)C(=O)N1CCC[C@@H]1C(=O)N[C@H](CC(N)=O)C(=O)N[C@H](CCCCN)C(=O)N[C@H](C)C(=O)N[C@H](CCCCN)C(=O)N[C@H](CO)C(=O)N[C@H](CCCNC(=N)N)C(N)=O) [rrrrrrrrr-ylpnkaksr (IKR81400)] | 616 % increase in Lck activity | –
9 | CRSKAKNPLYRRRRRRC (disulfide 1-17 (inferred); not fully specified; printed as C-RSKAKNPLY-RRRRRR-C (Cyclised)) [C-RSKAKNPLY-RRRRRR-C (Cyclised) (IK14500C)] | 221% | –
10 | RSKAKRRRRRRRRR-NH2 [RSKAK-RRRRRRRRR (IK50900)] | 531 % increase in Lck activity | –
11 | KKKKKKKKKK-NH2 [KKKKKKKKKK (10Lys)] | – | 161 % increase in Lck activity
12 | RSKAKRR-NH2 [RSKAK-RR (IK50200)] | 5 % activation of Lck relative to control | –
13 | RSKAKNPLYKKKKKKKKK-NH2 [RSKAKNPLY-KKKKKKKKK (IK94K90)] | 49 % increase in Lck activity | –
14 | RRRRRRRRR-NH2 [RRRRRRRRR (IK00900)] | 325% | –
15 | RSKAKNPLYRRRRR-NH2 [RSKAKNPLY-RRRRR (IK14400)] | 85% | –
16 | [dR][dS][dK][dA][dK][dN][dP][dL][dY][dR][dR][dR][dR][dR][dR]-NH2 (N-terminus assumed; SMILES CC(C)C[C@@H](NC(=O)[C@H]1CCCN1C(=O)[C@@H](CC(N)=O)NC(=O)[C@@H](CCCCN)NC(=O)[C@@H](C)NC(=O)[C@@H](CCCCN)NC(=O)[C@@H](CO)NC(=O)[C@H](N)CCCNC(=N)N)C(=O)N[C@H](Cc1ccc(O)cc1)C(=O)N[C@H](CCCNC(=N)N)C(=O)N[C@H](CCCNC(=N)N)C(=O)N[C@H](CCCNC(=N)N)C(=O)N[C@H](CCCNC(=N)N)C(=O)N[C@H](CCCNC(=N)N)C(=O)N[C@H](CCCNC(=N)N)C(N)=O) [rskaknply-rrrrrr (ID94600)] | 60 % increase in Lck activity | –
17 | RRRRRRRRRHHHHHHHHHH-NH2 [RRRRRRRRR-HHHHHHHHHH (IK00910)] | – | 348 % Lck activity relative to control
18 | HHHHHRSKAKNPLYRRRRRRRRR-NH2 [HHHHH-RSKAKNPLY-RRRRRRRRR (IK11480)] | 883 % increase in Lck activity | –
19 | [dR][dR][dR][dR][dR][dR][dR][dR][dR][dR][dR][dR][dR][dR]-NH2 (N-terminus assumed; SMILES N=C(N)NCCC[C@@H](N)C(=O)N[C@H](CCCNC(=N)N)C(=O)N[C@H](CCCNC(=N)N)C(=O)N[C@H](CCCNC(=N)N)C(=O)N[C@H](CCCNC(=N)N)C(=O)N[C@H](CCCNC(=N)N)C(=O)N[C@H](CCCNC(=N)N)C(=O)N[C@H](CCCNC(=N)N)C(=O)N[C@H](CCCNC(=N)N)C(=O)N[C@H](CCCNC(=N)N)C(=O)N[C@H](CCCNC(=N)N)C(=O)N[C@H](CCCNC(=N)N)C(=O)N[C@H](CCCNC(=N)N)C(=O)N[C@H](CCCNC(=N)N)C(N)=O) [rrrrrrrrrrrrrr (IKD01400)] | – | 228 % Lck activity relative to control
20 | RRRRRRRRRRRR-NH2 [RRRRRRRRRRRR (IK01200)] | – | 401 % Lck activity relative to control
21 | [dR][dR][dR][dR][dR][dR][dR][dR]-NH2 (N-terminus assumed; SMILES N=C(N)NCCC[C@@H](N)C(=O)N[C@H](CCCNC(=N)N)C(=O)N[C@H](CCCNC(=N)N)C(=O)N[C@H](CCCNC(=N)N)C(=O)N[C@H](CCCNC(=N)N)C(=O)N[C@H](CCCNC(=N)N)C(=O)N[C@H](CCCNC(=N)N)C(=O)N[C@H](CCCNC(=N)N)C(N)=O) [rrrrrrrr (IKD00800)] | – | 80 % Lck activity relative to control
